Test results taken from patent publication US20190032056, “STEM-LOOP COMPOSITIONS AND METHODS FOR INHIBITING FACTOR D” (Vitrisa Therapeutics, Inc., published 2019).

Columns and labels:
[1] = target: T1, complement Factor D (fD) in C1q-depleted human serum (Homo sapiens, UniProt P00746 SEQ:1-228); assay: inhibition; hemolysis; conditions: protein: extract; tags: endogenous fD, about 9.6 nM in 10% serum; hairpin
[2] = target: T2, complement Factor D (fD) (Homo sapiens, UniProt P00746 SEQ:1-228); assay: competition; signal reduced about 75-90% by 100 nM AFD anti-fD Fab; SB1T, 37 C; conditions: tags: His-tagged, immobilized on magnetic His capture beads; label: Dy650 via hybridized 2'-OMe reverse oligo
T2 sequence (P00746 26-253): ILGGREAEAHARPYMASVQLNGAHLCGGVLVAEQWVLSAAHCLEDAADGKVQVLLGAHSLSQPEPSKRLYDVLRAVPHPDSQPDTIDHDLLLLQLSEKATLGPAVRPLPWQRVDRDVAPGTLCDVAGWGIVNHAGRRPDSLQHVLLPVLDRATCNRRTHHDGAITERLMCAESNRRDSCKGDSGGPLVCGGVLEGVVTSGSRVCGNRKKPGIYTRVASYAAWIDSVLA
Procedure: Competition binding assays were performed using a clone of an anti-fD Fab with an amino acid sequence of heavy chain variable region according to SEQ ID NO:7 and light chain variable region according to SEQ ID NO:8 (hereinafter, “AFD”) to further assess binding. For the competition assays, beads labelled with fD were first incubated with 50 nM round or individual aptamer, in 50 μl SB1T (with ssDNA and BSA), for 30 minutes at 37° C. The beads were then washed with SB1T to remove unbound aptamers and incubated with or without 100 nM AFD for 30 minutes at 37° C. Following incubation, the beads were washed three times with SB1T, and assayed by flow cytometry (FIG. 12). […] In cases where aptamers are sufficiently outcompeted by AFD as described above, such aptamers were presumed to be binding to the exosite or the self-inhibitory loop of fD.

[3] = target: T1, complement Factor D (fD) in …; assay: inhibition; hemolysis; conditions: protein: extract; tags: endogenous fD, about 9.6 nM in 10% serum; hairpin; remark: listed apart in the source
Procedure: (§1) In V-bottom 96-well plates the following reagents were added to a final volume of 250 μL: appropriate volume of 1× Veronal buffer with 0.1% gelatin, 100 μL aptamer, 30 μL of C1q-depleted human serum and 20 μl RBCs. This mixture was incubated for 25 minutes at room temperature, then the reaction was stopped by the addition of 5 μL of 500 mM EDTA. The plate was centrifuged for 5 minutes at 500×g at room temperature, then 100 μL of supernatant was removed and the extent of RBC lysis was determined by measuring absorbance at 405 nm.
The following nine aptamers with 2′OMe-Gs in Stem 1 (S1) were synthesized: Aptamer 76 (2′OMe-Gs substituted in Stem 1 (S1) of Aptamer 39), Aptamer 116 (Aptamer comprising loop 2 (L2) of Aptamer 39 and Stem 1 (51) of Aptamer 15 with 2′OMe-Gs in Stem 1 (S1)), Aptamer 102 (4 base pair 2′OMe-G Stem 1 (S1) variant of Aptamer 76), Aptamer 104 (4 base pair 2′OMe-G Stem 1 (S1) variant of Aptamer 74), Aptamer 106 (Aptamer 88 with 2′OMe-G Stem 1 (S1)), Aptamer 107 (4 base pair 2′OMe-G Stem 1 (S1) variant of Aptamer 88), Aptamer 108 (3 base pair 2′OMe-G Stem 1 (S1) variant of Aptamer 92), Aptamer 109 (4 base pair 2′OMe-G Stem 1 (S1) variant of Aptamer 98) and, Aptamer 99 (4 base pair 2′OMe-G Stem 1 (S1) variant of Aptamer 60).

[4] = target: T2, complement Factor D (fD); assay: SPR; conditions: tags: amine-coupled to dextran chip for SPR; free in esterase assay; hairpin
Procedure: The binding affinity of aptamers for fD was determined by surface plasmon resonance (SPR) on a Reichert4 SPR System, where either aptamer or fD was immobilized as ligand on a solid surface and the interactant analyte was flowed in solution over the immobilized ligand (Table 20).

[5] = target: T1, complement Factor D (fD) in …; assay: inhibition; hemolysis; conditions: protein: extract; tags: endogenous fD, about 9.6 nM in 10% serum; hairpin; remark: listed apart in the source
Procedure: as §1
To this end, series of aptamer variants were designed based on the loop L2 sequences for Aptamers 15, 39, and 38 in which the sequence of S1 and S2 were altered while maintaining pairing (Table 17). These included Aptamers 90, and 94-98. Additionally, a truncate of Aptamer 38 (Aptamer 91) was designed with 3 base pairs in stem S1. The stem elements (S1 and S2) from this molecule were also used to generate Aptamer 92, which contained L2 from Aptamer 39.

[6] = target: T2, complement Factor D (fD); assay: flow; bead-based direct binding; conditions: tags: His-tagged recombinant, bead-immobilized via His capture beads (flow) or anti-His Eu (TR-FRET); hairpin

T1 sequence (P00746 26-253): as above

## CCGCCUUGCGAGUAAUGGCGUAGGCUCGAAGUUGGGCGG (ssRNA, 2'-F G; 2'-OMe A,C,U; 5' C6NH2; 3' idT) [Aptamer 35]
[1]
  IC50: 5.4 nM

## CAGCCGUGCUAGUAUUGGCAUUGGCUAGAAGUUAGGCUG (ssRNA, 2'-F G; 2'-OMe A,C,U; 5' C6NH2; 3' idT) [Aptamer 34]
[1]
  IC50: 6.9 nM

B1: C2 (ssRNA)
RNA: GGGAGUGUGUACGAGGCAUUAGUCCGCCGAAGUCUUUUGGCUCGGUUUUUUCAAGGUCGGCGGCUUUGAUACUUGAUCGCCCUAGAAGC
modifications: 2'-F G; 2'-OMe A, C, U
[2]
  binding result: binds

B2: C1 (ssRNA)
RNA: GGGAGUGUGUACGAGGCAUUAGGCCGCCACCCAAACUGCAGUCCUCGUAAGUCUGCCUGGCGGCUUUGAUACUUGAUCGCCCUAGAAGC
modifications: 2'-F G; 2'-OMe A, C, U
[2]
  binding result: binds

## GCCUUGCGGGUAUUGGCGAUGGCCCGAAGUUUGGC (ssRNA, 2'-F G except 2'-OMe G in stem 1; 2'-OMe A,C,U; 5' C6NH2; 3' idT) [Aptamer 108]
[3]
  IC50: < 10 nM
[4]
  Kd: 2.7 nM

## GCCUUGAGGGUAUUGGCGAUGGCCCUAAGUUUGGC (ssRNA, 2'-F G; 2'-OMe A,C,U; 5' C6NH2; 3' idT) [Aptamer 93]
[5]
  IC50: ~100 nM

## GCCUUGCGGGUAUUGGCGAUGGCCCGAAGUUUGGC (ssRNA, 2'-F G; 2'-OMe A,C,U; 5' C6NH2; 3' idT) [Aptamer 92]
[5]
  IC50: ~10 nM

## CGCCUUGCCAGUAUUGGCUUAGGCUGGAAGUUUGGCG (ssRNA, 2'-F G except 2'-OMe G in stem 1; 2'-OMe A,C,U; 5' C6NH2; 3' idT) [Aptamer 104]
[3]
  IC50: < 10 nM
[4]
  Kd: 3.9 nM

## CGCCUUGCCAGUAUUGGCGAUGGCUGGAAGUUUGGCG (ssRNA, 2'-F G except 2'-OMe G in stem 1; 2'-OMe A,C,U; 5' C6NH2; 3' idT) [Aptamer 99]
[3]
  IC50: < 10 nM
[4]
  Kd: 3.34 nM

## CGCCUUGCCAGUAUUGGCGAUGGCUGGAAGUUUGGCG (ssRNA, 2'-F G; 2'-OMe A,C,U; 5' C6NH2; 3' idT) [Aptamer 60]
[1]
  IC50: < 10 nM

## CGACUUGCCAGUAUUGGCUUAGGCUGGAAGUUUGUCG (ssRNA, 2'-F G except 2'-OMe G in stem 1; 2'-OMe A,C,U; 5' C6NH2; 3' idT) [Aptamer 107]
[3]
  IC50: < 10 nM
[4]
  Kd: 4.2 nM

## CGCCUUGCCAGUAUUGGCUUAGGCUGGAAGUUUGGCG (ssRNA, 2'-F G; 2'-OMe A,C,U; 5' C6NH2; 3' idT) [Aptamer 16]
[5]
  IC50: < 10 nM

B3: C3 (ssRNA)
RNA: GGGAGUGUGUACGAGGCAUUAGGCCGCCACCUCGUUUGAUUGCGGUUGUUCGGCCGCGGGCGGCUUUGAUACUUGAUCGCCCUAGAAGC
modifications: 2'-F G; 2'-OMe A, C, U
[2]
  binding result: binds

## CGCAUUGCUAGUAUUGGCUUAGGCUAGAAGUGUUGCG (ssRNA, 2'-F G; 2'-OMe A,C,U; 5' C6NH2; 3' idT) [Aptamer 40]
[1]
  IC50: 5.8 nM

## GGCCUUGCCCGUAUUGGCGAUGGCGGGAAGUUUGGCC (ssRNA, 2'-F G except 2'-OMe G in stem 1; 2'-OMe A,C,U; 5' C6NH2; 3' idT) [Aptamer 109]
[3]
  IC50: < 10 nM
[4]
  Kd: 1.07 nM

## GGCCUUGCCCGUAUUGGCGAUGGCGGGAAGUUUGGCC (ssRNA, 2'-F G; 2'-OMe A,C,U; 5' C6NH2; 3' idT) [Aptamer 98]
[5]
  IC50: < 10 nM

## CAGCCAUGCAAGUAUUGGCUUAGGCUUGAAGUUCGGCUG (ssRNA, 2'-F G; 2'-OMe A,C,U; 5' C6NH2; 3' idT) [Aptamer 33]
[1]
  IC50: 11 nM

## CCGACUUGCCAGUAUUGGCGAUGGCUGGAAGUUUGUCGG (ssRNA, 2'-F G; 2'-OMe A,C,U; 5' C6NH2; 3' idT) [Aptamer 39]
[1]
  IC50: 3.1 nM

## CCGACUUGCCAGUAUUGGCGCUGGCUGGAAGUUUGUCGG (ssRNA, 2'-F G; 2'-OMe A,C,U; 5' C6NH2; 3' idT) [Aptamer 68]
[1]
  IC50: ~10 nM

## CCGACUUGCGGGUAUUGGCGAUGGCCCGAAGUUUGUCGG (ssRNA, 2'-F G; 2'-OMe A,C,U; 5' C6NH2; 3' idT) [Aptamer 54]
[1]
  IC50: ~10 nM

## CGACUUGCGGGUAUUGGCGAUGGCCCGAAGUUUGUCG (ssRNA, 2'-F G; 2'-OMe A,C,U; 5' C6NH2; 3' idT) [Aptamer 55]
[1]
  IC50: ~10 nM

## CUGCCUUGCGGGUAUUGGCGUUGGCCCGAAGUUUGGCUG (ssRNA, 2'-F G; 2'-OMe A,C,U; 5' C6NH2; 3' idT) [Aptamer 38]
[1]
  IC50: 5.5 nM

## CUGCCUUGCGGGUAUUGGCGAUGGCCCGAAGUUUGGCUG (ssRNA, 2'-F G; 2'-OMe A,C,U; 5' C6NH2; 3' idT) [Aptamer 57]
[1]
  IC50: ~10 nM

## CCGACUUGCGGGUAUUGGCGUUGGCCCGAAGUUUGUCGG (ssRNA, 2'-F G; 2'-OMe A,C,U; 5' C6NH2; 3' idT) [Aptamer 59]
[1]
  IC50: < 10 nM

B4: Aptamer 1723 (ssRNA)
RNA: CCGCCUUGCCAGUAUUGGCUUAGGCUGGAAGUUUGGCGG
modifications: 2'-F G except 2'-OMe G at 3,12,24,27,28,35,36,38,39; 2'-OMe A,C,U; 5' C6SH; 3' idT
[6]
  Kd: 45 nM

## CCGACUUGCCAGUAUAGGCUCAGGCUGGAAGUUUGUCGG (ssRNA, 2'-F G; 2'-OMe A,C,U; 5' C6NH2; 3' idT) [Aptamer 62]
[1]
  IC50: ~10 nM

## CCGACUUGCCAGUGUUGGCUUUGGCUGGAAGUUUGUCGG (ssRNA, 2'-F G; 2'-OMe A,C,U; 5' C6NH2; 3' idT) [Aptamer 36]
[1]
  IC50: 8.2 nM

## CCGCCUUGCCAGUAUUGGCUUAGGCUGGAAGUUUGGCGG (ssRNA, 2'-F G except 2'-OMe G at 3,12,27,28,35,36,38,39; 2'-OMe A,C,U; 5' C6SH; 3' idT) [Aptamer 1722]
[6]
  Kd: 11 nM

## CCGCCUUGCCAGUAUUGGCGAUGGCUGGAAGUUUGGCGG (ssRNA, 2'-F G except 2'-OMe G in stem 1; 2'-OMe A,C,U; 5' C6NH2; 3' idT) [Aptamer 116]
[3]
  IC50: < 10 nM

## CCGACUUGCCAGUAUUGGCUCUGGCUGGAAGUUUGUCGG (ssRNA, 2'-F G; 2'-OMe A,C,U; 5' C6NH2; 3' idT) [Aptamer 72]
[1]
  IC50: ~100 nM

## CCGACUUGCCAGUAUUGGCUUAGGCUGGAAGUUUGUCGG (ssRNA, 2'-F G; 2'-OMe A,C,U; 5' C6NH2; 3' idT) [Aptamer 88]
[1]
  IC50: < 10 nM

## CCGACUUGCCAGUAUUGGCGAAGGCUGGAAGUUUGUCGG (ssRNA, 2'-F G; 2'-OMe A,C,U; 5' C6NH2; 3' idT) [Aptamer 71]
[1]
  IC50: < 10 nM

## CCGACUUGCCAGUAUUGGCGCAGGCUGGAAGUUUGUCGG (ssRNA, 2'-F G; 2'-OMe A,C,U; 5' C6NH2; 3' idT) [Aptamer 69]
[1]
  IC50: < 10 nM

## CCGACUUGCCAGUAUUGGCCUAGGCUGGAAGUUUGUCGG (ssRNA, 2'-F G; 2'-OMe A,C,U; 5' C6NH2; 3' idT) [Aptamer 66]
[1]
  IC50: ~100 nM

## CCGCCUUGCCAGUAUUGGCUUAGGCUGGAAGUUUGGCGG (ssRNA, 2'-F G except 2'-OMe G at 3,12,27,35,36,38,39; 2'-OMe A,C,U; 5' C6SH; 3' idT) [Aptamer 1721]
[6]
  Kd: 4.5 nM

## CCGACUUGCCAGUAUUAGCUUAGGCUGGAAGUUUGUCGG (ssRNA, 2'-F G; 2'-OMe A,C,U; 5' C6NH2; 3' idT) [Aptamer 64]
[1]
  IC50: ~100 nM
